Drawing on PMC12205980, this text covers stoichiometry N for one substance.

What is called stoichiometry N is the number of molecules, sites or subunits per partner or assembly.

In this test the target is GP55 (ORF55-encoded replicase of lactococcal phage 1706), full length (lactococcal phage 1706). Description: SEC-MALS; Superdex 200 Increase 10/300 GL, 20 mM Tris-HCl pH 8.0, 100 mM NaCl, 1 mM TCEP, 0.5 ml/min; Wyatt Dawn Heleos II; self-association of the Ni-NTA-purified protein. On the technique in general: SEC sorts molecules by how far they enter the pores of the column.

“GP55 (ORF55-encoded replicase of lactococcal phage 1706), full length (enzyme)”: the stoichiometry N is 2.
